Test results taken from patent US20220281976A1 (Alector, published 2022).
Positions count from the first letter of the chain named.

T1: mouse CD33 Fc fusion protein (mouse, UniProt Q63994 18-240, limits assumed)
T1 construct: also called mCD33-Fc
T1 sequence: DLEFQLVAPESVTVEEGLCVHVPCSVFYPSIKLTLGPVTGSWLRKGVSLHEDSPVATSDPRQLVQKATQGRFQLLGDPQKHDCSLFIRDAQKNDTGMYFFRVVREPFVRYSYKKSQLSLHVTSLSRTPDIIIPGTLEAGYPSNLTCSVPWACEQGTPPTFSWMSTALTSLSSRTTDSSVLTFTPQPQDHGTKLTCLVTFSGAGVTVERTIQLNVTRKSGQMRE

B1: C-15 (antibody, V domains shown)
VH: QVQLVESGGGVVQPGRSLRLSCAASGFTFSSYGMHWVRQAPGKGLEWVAVIWYDGSNKYYADSVKGRFTISRDNSKNTLYLQMNSLRAEDTAVYYCAKGVGYDTGTDMDVWGKGTTVTVSS
VL: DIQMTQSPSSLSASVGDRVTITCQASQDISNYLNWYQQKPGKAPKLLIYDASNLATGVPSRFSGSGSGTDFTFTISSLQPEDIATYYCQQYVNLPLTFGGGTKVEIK
notes: human IgG1
B2: C-30 (antibody, V domains shown)
VH: QVQLVQSGAEVKKPGASVKVSCKASGYTFTSYYMHWVRQAPGQGLEWMGVINPSGGSTSYAQKFQGRVTMTRDTSTSTVYMELSSLRSEDTAVYYCAREEAVAADLGVDVWGQGTTVTVSS
VL: not shown
B3: C-22 (antibody, V domains shown)
VH: QVQLQESGPGLVKPSETLSLTCAVSGYSISSGYYWGWIRQPPGKGLEWIGSIYHSGNTYYNPSLKSRVTISVDTSKNQFSLKLSSVTAADTAVYYCARDGRYSSSGELYYGMDVWGQGTTVTVSS
VL: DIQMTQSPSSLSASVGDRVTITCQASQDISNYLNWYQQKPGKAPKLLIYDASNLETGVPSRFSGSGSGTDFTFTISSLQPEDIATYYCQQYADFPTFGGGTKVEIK
notes: human IgG1
B4: C-20 (antibody, V domains shown)
VH: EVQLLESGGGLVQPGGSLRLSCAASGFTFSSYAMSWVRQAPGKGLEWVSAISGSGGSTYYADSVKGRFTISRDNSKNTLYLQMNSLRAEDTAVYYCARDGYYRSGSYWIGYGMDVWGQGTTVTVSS
VL: EIVLTQSPGTLSLSPGERATLSCRASQSVSSSFLAWYQQKPGQAPRLLIYGASSRATGIPDRFSGSGSGTDFTLTISRLEPEDFAVYYCQQVDSYPPTFGGGTKVEIK
notes: human IgG1
B5: C-26 (antibody, V domains shown)
VH: QLQLQESGPGLVKPSETLSLTCTVSGGSISSNSYYWGWIRQPPGKGLEWIGSIYYSGSTYYNPSLKSRVTISVDTSKNQFSLKLSSVTAADTAVYYCARSPVYYDSSGYFQYYGMDVWGQGTTVTVSS
VL: EIVLTQSPATLSLSPGERATLSCRASQSVSSYLAWYQQKPGQAPRLLIYDASKRATGIPARFSGSGSGTDFTLTISSLEPEDFAVYYCQQSIVWPPFTFGGGTKVEIK
notes: human IgG1
B6: C-16 (antibody, V domains shown)
VH: EVQLVESGGGLVQPGGSLRLSCAASGFTFSSYWMSWVRQAPGKGLEWVANINQDGSEKYYVDSVKGRFTISRDNAKNSLYLQMNSLRAEDTAVYYCAREGSDRHPFDYWGQGTLVTVSS
VL: DIQMTQSPSSLSASVGDRVTITCRASQSISSYLNWYQQKPGKAPKLLIYAASSLQSGVPSRFSGSGSGTDFTLTISSLQPEDFATYYCQQAYLVPLTFGGGTKVEIK
notes: human IgG1
B7: C-28 (antibody, V domains shown)
VH: EVQLVESGGGLVQPGGSLRLSCAASGFTFSSYWMSWVRQAPGKGLEWVANINQDGSEKYYVDSVKGRFTISRDNAKNSLYLQMNSLRAEDTAVYYCAREGRRTMNAFDIWGQGTMVTVSS
VL: B6 VL with A50G, A91G, L93D, L96I
notes: human IgG1
B8: C-25 (antibody, V domains shown)
VH: EVQLVESGGGLVQPGGSLRLSCAASGFTFSSYWMSWVRQAPGKGLEWVANIKSDGSEKYYVDSVKGRFTISRDNAKNSLYLQMNSLRAEDTAVYYCAREGFRDGINWFDPWGQGTLVTVSS
VL: B6 VL with S31R, A91Q, Y92F, V94T, L96I
notes: human IgG1
B9: C-23 (antibody, V domains shown)
VH: QVQLQESGPGLVKPSETLSLTCAVSGYSISSGYYWGWIRQPPGKGLEWIGTIYHSGSTYYNPSLKSRVTISVDTSKNQFSLKLSSVTAADTAVYYCAREVGVVGALPYFDYWGQGTLVTVSS
VL: B6 VL with A50G, Y92S, L93S, V94S, L96P
notes: human IgG1

Assays:
human CD33 [1] = biological target: T2, human CD33 (human, UniProt P20138 18-364); assay: cell-based or functional assay
[2] = biological target: T1, mouse CD33 Fc fusion protein; assay: ForteBio BLI or MSD-SET
[3] = biological target: T3, human CD33 Fc fusion protein (human, UniProt P20138 18-259); assay: ForteBio BLI or MSD-SET, IgG, avid;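 also: Anti-CD33 IgG affinity by BLI, IgG captured on AHQ sensors with antigen in solution and a one-to-one kinetic fit, or by MSD solution equilibrium titration with quadratic fit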
T3 construct: also called hCD33-Fc; human CD33/Fc chimera (R&D Systems)

human CD33 [4] = biological target: T2, human CD33; assay: flow cytometry, human primary T cells;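 also: binding of anti-CD33 antibodies at 10 ug/ml to human primary T cells, 1 h on ice, detected with PE-labelled secondary antibody, read as flow cytometry MFI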
human CD33 [5] = biological target: T2, human CD33; assay: flow cytometry, human primary monocytes; set-up: reference not given here;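 also: binding of anti-CD33 antibodies at 10 ug/ml to human primary monocytes, 1 h on ice, detected by PE-labelled secondary antibody, flow cytometry readout as mean fluorescence intensity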
human CD33 [6] = biological target: T2, human CD33; assay: flow cytometry, human primary macrophages;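 also: binding of CD33 antibodies at 10 µg/ml to human primary macrophages, 1 h on ice, detected with PE-labelled secondary antibody by flow cytometry, reported as MFI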
human CD33 [7] = biological target: T2, human CD33; assay: flow cytometry, human primary dendritic cells;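 also: binding of anti-CD33 antibodies (10 ug/ml, 1 h on ice) to human primary dendritic cells, detected with a PE-labelled secondary antibody, reported as flow cytometry MFI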
[8] = biological target: T4, human monomeric His tagged CD33 protein (human, UniProt P20138 18-259); assay: ForteBio BLI or MSD-SET, IgG, monomeric antigen;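 also: BLI: antibodies captured on AHQ sensors, 100 nM antigen association 5 min, dissociation 5 min, 1:1 fit. MSD-SET: antigen fixed at 50 pM, antibody titrated, quadratic fit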
T4 construct: also called hCD33-His

[9] = biological target: T3, human CD33 Fc fusion protein; assay: RBC adhesion to plate-bound CD33-Fc; antibody 0.5 ug/ml;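 also: Plate-coated CD33-Fc preincubated 1 h with antibody, then red blood cells added for 1 h at room temperature, adherent cells lysed and quantified via peroxidase activity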
Protocol: Briefly, 5 ug/ml CD33-Fc was coated overnight at RT in 96 well Immunolon plates, then washed with PBS, blocked for one hour with binding buffer (PBS containing %0.25 BSA 1 mM CaCl₂). CD33 antibodies (0.5 ug/ml or 1.0 ug/ml) or Fabs (25 ug/ml) were bound for one hour at RT with gentle rocking. After removal of unbound antibody, red blood cells were added to each well at a concentration of 3.0×10⁶ cells per ml and incubated at RT for one hour. Unbound RBCs were then carefully washed off 3× with PBS, and water was added to each well for hypotonic lysis of bound RBCs. The plate was transferred to −80° C. for 10 minutes, followed by 37° C. for 15 minutes. Bound RBCs were detected by peroxidase activity, followed by 2N sulfuric acid to stop the reaction.

[10] = biological target: T3, human CD33 Fc fusion protein; assay: RBC adhesion to plate-bound CD33-Fc; antibody 1.0 ug/ml;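 also: red blood cells adhering to plate-coated CD33-Fc after 1 h antibody pretreatment, then 1 h at room temperature, bound cells read as peroxidase activity after lysis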

T2 sequence (P20138 18-364): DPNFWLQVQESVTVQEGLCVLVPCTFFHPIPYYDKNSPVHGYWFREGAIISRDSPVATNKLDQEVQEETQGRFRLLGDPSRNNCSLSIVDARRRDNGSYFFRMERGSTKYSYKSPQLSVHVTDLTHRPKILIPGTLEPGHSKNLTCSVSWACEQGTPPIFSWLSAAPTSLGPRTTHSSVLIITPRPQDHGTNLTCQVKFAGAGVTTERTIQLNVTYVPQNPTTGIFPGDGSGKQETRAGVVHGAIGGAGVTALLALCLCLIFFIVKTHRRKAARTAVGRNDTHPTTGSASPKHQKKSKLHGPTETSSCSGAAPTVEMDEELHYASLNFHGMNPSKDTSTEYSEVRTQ
T3 sequence (P20138 18-259 limits assumed): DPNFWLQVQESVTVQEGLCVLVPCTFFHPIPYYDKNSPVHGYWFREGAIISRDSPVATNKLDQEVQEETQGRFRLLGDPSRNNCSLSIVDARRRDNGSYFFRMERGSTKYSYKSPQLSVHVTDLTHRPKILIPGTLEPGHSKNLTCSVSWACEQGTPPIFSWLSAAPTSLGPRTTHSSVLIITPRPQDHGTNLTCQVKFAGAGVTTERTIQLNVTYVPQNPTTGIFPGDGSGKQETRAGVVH
T4 sequence (P20138 18-259 limits assumed): as above

Binder | Percent CD33 Surface Expression, DC % CD33 (human CD33 [1]) [%] | Percent CD33 Surface Expression, Macrophage % CD33 (human CD33 [1]) [%] | Percent CD33 Surface Expression, Monocyte % CD33 (human CD33 [1]) [%] | binding result [2] | Kd [3] [nM] | T cell MFI (human CD33 [4]) | Monocyte MFI (human CD33 [5]) | Macrophage MFI (human CD33 [6]) | DC MFI (human CD33 [7]) | Kd [8] [nM] | Percent RBC Binding to CD33 [9] [%] | Percent RBC Binding to CD33 [10] [%]
B1 | 17 | 42 | 32.6 | no binding (tested: 100 nM) | 1.82 | 206 | 191 | 883 | 2020 | 6.55 | 15.3 | 8.77
B2 | 21 | 41.3 | 43 | no binding (tested: 100 nM) | 0.985 | 240 | 169 | 1060 | 1660 | 4.12 | 14.2 | 8.9
B3 | 17 | 44 | 40.7 | no binding (tested: 100 nM) | 0.445 | 207 | 188 | 912 | 1650 | 1.97 | 11.5 | 9.95
B4 | 30.2 | 54.3 | 53.9 | no binding (tested: 100 nM) | 0.304 | 205 | 196 | 730 | 1700 | 0.958 | 12.5 | 9.4
B5 | 18.8 | 45.1 | 33 | no binding (tested: 100 nM) | 0.388 | 198 | 188 | 926 | 1960 | 1.57 | 19.2 | 15.2
B6 | 19.5 | 62.6 | 42.4 | no binding (tested: 100 nM) | 1.35 | 229 | 133 | 711 | 1750 | 5.87 | 17.2 | 7.69
B7 | 14.8 | 40.2 | 29.2 | no binding (tested: 100 nM) | 1.02 | 402 | 143 | 811 | 1780 | 4 | 14 | 9.65
B8 | 22.3 | 41.9 | 35.4 | no binding (tested: 100 nM) | 1.85 | 187 | 139 | 877 | 1790 | 8.78 | 11.3 | 10.1
B9 | 69.5 | – | 71.3 | no binding (tested: 100 nM) | 3.39 | 242 | 128 | 771 | 1050 | 21.1 | 13.8 | 8.42
